Data set [1] concerns the molecule itself. The data set is described as follows: AUC.
Data set [2] deals with the molecule itself. Kind of data set: AUC. The source holds these as a separate data set.

B1: Acinetobacter baumannii TIR domain protein (AbTir-TIR^wt, aa134-269) (domain or fragment, UniProt A0A009IHW8 134-269, looked up)
chain: EYDLFISHASEDKEDFVRPLAETLQQLGVNVWYDEFTLKVGDSLRQKIDSGLRNSKYGTVVLSTDFIKKDWTNYELDGLVAREMNGHKMILPIWHKITKNDVLDYSPNLADKVALNTSVNSIEEIAHQLADVILNR
In general, Kd refers to the free concentration of one partner at which half of the binding sites on the other are occupied at equilibrium, for simple one-to-one binding. What is called stoichiometry N is the number of molecules, sites or subunits per partner or assembly. On to B1, for which the Kd in the data set “AUC [1]” came out at 1400 nM. Also, the “stoichiometry N” value in “AUC [2]” turned out to be 2.

The values are drawn from article PMC10641520 (The Journal of Biological Chemistry, 2023).
